Experiment [1] has as its target T1, CCR10 (Homo sapiens, UniProt Q9NPB9).
T1 sequence (Q9NPB9 1-350): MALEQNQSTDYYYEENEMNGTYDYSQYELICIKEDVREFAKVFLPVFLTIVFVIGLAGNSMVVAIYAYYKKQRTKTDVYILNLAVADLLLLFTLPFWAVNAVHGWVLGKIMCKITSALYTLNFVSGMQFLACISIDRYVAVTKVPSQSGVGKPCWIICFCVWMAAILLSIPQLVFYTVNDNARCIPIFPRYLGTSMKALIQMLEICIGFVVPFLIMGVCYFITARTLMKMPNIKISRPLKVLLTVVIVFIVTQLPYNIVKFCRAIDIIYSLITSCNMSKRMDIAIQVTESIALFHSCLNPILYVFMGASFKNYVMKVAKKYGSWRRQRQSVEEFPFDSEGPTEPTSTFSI
The experiment in a line: Spectrum of ligands that bind to CCR10. Format: binding. Also on record: Full length CCR10 expression constructs were made in pIRESpuro expression vector; expressed in transfected cells; HEK293-CCR10). The text has this:
(§1) Furthermore ELC-SK mediated adhesion was abolished in the presence of soluble native ELC as a competitor (FIG. 3A, top row). […] Moreover, radiolabeled ELC was used in a traditional homologous competition assay in the presence of increasing concentrations of unlabeled ELC. […] Taken together, the stalkokine-based adhesion and radiolabeled ligand binding/homologous competition assays indicate that CCR10 is a new chemokine receptor that bound a novel compliment of chemokines.

In experiment [2] the target is T1, CCR10. The experiment in a line: Binding of CCR10-NSO cells to immobilized stalkokines. Also noted: expressed in transfected cells; host or cells: not clear (NSO per the earlier reading). The procedure:
(§2) In one set of experiments, five 8 well chamber slides (Lab-Tek II, Nalge Nunc International, Rochester, N.Y.), 250 ul of 10 ug/ml anti-his antibody (R&D Systems, Minneapolis, Minn.) in PBS was added to each well and incubated at room temperature overnight (typically 16 hours). Following, the liquid in each well was aspirated and washed once for approximately 5 minutes with 500 ul of PBS. The wells were then “blocked” (blocked for any additional protein binding sites) with the addition of 250 ul of blocking solution (2% fetal bovine serum, 0.5% BSA in PBS) and incubation for 1 hour at room temp (e.g., 20° C.). The liquid in each well was aspirated and 250 ul of supernatant containing the chemokine-stalk-immobilization domain fusion proteins (SDF1a-FRAC, finetaxin-FRAC, CCL27-FRAC, 1309-FRAC, MIP3a-FRAC, ELC-FRAC, SLC-FRAC, MDC-FRAC, TARC-FRAC, or BRAK-FRAC) or the control supernatant was added to two wells. Each slide contained two wells with control supernatant (from mock-transfected cells) and two wells with the positive control SDF1a (which binds the ubiquitous chemokine receptor CXCR4). The four other wells were for experimental samples. The supernatants were incubated for one hour at room temperature (typically 20° C.), then incubated for an additional hour at 37° C. […] The slide was then ready for addition of cells for assay. […]

Another experiment relates to wild type HEK293 cells. The experiment in a line: Homologous competition binding of radiolabeled ELC on wild type HEK293 cells. As to conditions: wildtype (wt) HEK293 cells. Also noted: species or system human.
Text: as §1

Experiment [3] addresses T1, CCR10. The experiment in a line: Homologous competition binding of radiolabeled chemokine on HEK293-CCR10 cells. Also on record: Full length CCR10 expression constructs were made in pIRESpuro expression vector; expressed in transfected cells; HEK293-CCR10).
Text: Human, viral and murine recombinant chemokines were obtained from R&D Systems (Minneapolis, Minn.; http://cytokine.rndsystems.com/cyt_cat/cyt_cat.html). ^125I-labeled ELC and TECK were obtained from Amersham. Full length CCR10 expression constructs were made in pIRESpuro expression vector (Clontech, Palo Alto, Calif.) with a FLAG epitope tag and prolactin signal sequence, and used to generated stable transfectants in HEK293 cells. Transient and stable transfections for CCR10 and stalkokines were done using Superfect reagent (Qiagen, Valencia, Calif.) following manufacturer's protocol. Stably-transfected cells were generated by selection in 2 ug/mL puromycin for 7 days, and expression was confirmed by FACS analysis of the FLAG epitope using anti-FLAG M1 (Sigma, St. Louis, Mo.) and 2′ anti-mouse PE conjugate (Coulter Immunotech, Miami, Fla.).
as §1

The target of a further experiment is T2, CCR7 (Homo sapiens, UniProt P32248).
T2 construct: host or cells: mouse myeloma NSO
T2 sequence (P32248 25-378): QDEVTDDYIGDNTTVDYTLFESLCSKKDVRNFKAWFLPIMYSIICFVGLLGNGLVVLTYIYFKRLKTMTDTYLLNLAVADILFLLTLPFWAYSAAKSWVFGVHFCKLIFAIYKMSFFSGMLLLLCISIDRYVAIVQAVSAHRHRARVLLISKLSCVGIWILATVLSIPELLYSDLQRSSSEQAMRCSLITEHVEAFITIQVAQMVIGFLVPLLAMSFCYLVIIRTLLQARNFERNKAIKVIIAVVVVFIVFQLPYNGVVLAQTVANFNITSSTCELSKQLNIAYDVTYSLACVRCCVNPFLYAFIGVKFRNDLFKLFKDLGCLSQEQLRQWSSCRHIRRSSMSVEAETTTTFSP
The experiment in a line: Binding of CCR7-NSO cells to immobilized stalkokines. The procedure: as §2

As for BLC: chemokine, the “Affinity of binding to CCR10” value with CCR10 [1] is “lower affinity”.
Take “ELC: EBl1 ligand chemokine, soluble recombinant native form”: the “Binding to Stalkokine form” value with CCR10 [2] and in the experiment with CCR7 was “yes” each time. Moreover, the “Affinity of binding to CCR10” value in the experiment with CCR10 [1] was “high affinity”. Also, in the experiment on wild type HEK293 cells, the “Binding of radiolabeled ELC in homologous competition with unlabeled ELC” value is “not”. Further, the “Binding of radiolabeled chemokine in homologous competition with cold chemokine” value with CCR10 [3] is reported as “significant binding”.

The record behind these values is US6699677B1, “Tethered ligands and methods of use” (ChemoCentryx, Inc., priority 1999, dated 2004).
